# System: T1, bifurcating NADP Fe-only hydrogenase of C. autoethanogenum
# T1 sequence: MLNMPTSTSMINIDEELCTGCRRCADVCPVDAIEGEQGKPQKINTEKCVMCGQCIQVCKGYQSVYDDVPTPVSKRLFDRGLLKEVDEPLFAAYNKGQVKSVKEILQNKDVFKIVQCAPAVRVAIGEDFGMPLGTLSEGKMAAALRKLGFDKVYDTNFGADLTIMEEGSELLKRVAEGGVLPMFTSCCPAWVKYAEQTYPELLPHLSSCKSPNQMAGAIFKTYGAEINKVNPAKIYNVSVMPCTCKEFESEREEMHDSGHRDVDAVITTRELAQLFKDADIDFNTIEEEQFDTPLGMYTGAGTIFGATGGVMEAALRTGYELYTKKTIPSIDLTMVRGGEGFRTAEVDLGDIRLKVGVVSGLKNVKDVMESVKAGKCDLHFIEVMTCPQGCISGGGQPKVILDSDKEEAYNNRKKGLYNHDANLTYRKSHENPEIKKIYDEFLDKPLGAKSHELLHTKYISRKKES
substance,measurement,value
bifurcating NADP formate dehydrogenase of C. autoethanogenum,Formate-hydrogen lyase activity (using H2),a high activity of 2.4 U/mg was detected

# From patent US20140212976
